Drawing on paper PMC6159515, this text covers stoichiometry N for one substance.

This assay has as its target CglEndoMS-ΔCter, His-tagged (lacks the five carboxy-terminal residues of CglEndoMS) (Corynebacterium glutamicum ATCC 13032). The assay can be described thus: SEC.

One may read the stoichiometry N as a count of units in the complex or per binding partner. “CglEndoMS-ΔCter, His-tagged (lacks the five carboxy-terminal residues of CglEndoMS) (domain or fragment)”: the stoichiometry N was found to be 2.
